Data reported in patent US20260008852A1 (CRYSTAL BIOSCIENCE, published 2026).

T1: His-tagged human B7-H3 (human, UniProt Q5ZPR3-2 29-245, limits assumed)
T1 construct: Bought His-tagged protein coated on the ELISA plate; also called hu B7-H3; CD276
T1 sequence (looked up): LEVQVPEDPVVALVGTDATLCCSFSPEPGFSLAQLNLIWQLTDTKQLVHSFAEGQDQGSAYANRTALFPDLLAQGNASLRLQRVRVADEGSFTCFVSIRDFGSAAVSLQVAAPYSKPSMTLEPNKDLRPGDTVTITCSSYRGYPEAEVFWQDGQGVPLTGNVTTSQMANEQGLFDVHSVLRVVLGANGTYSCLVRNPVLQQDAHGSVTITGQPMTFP

T2: His-tagged mouse B7-H3 (mouse, UniProt Q8VE98 29-244, limits assumed)
T2 construct: Bought His-tagged protein coated on the ELISA plate; also called mu B7-H3; murine B7-H3
T2 sequence (looked up): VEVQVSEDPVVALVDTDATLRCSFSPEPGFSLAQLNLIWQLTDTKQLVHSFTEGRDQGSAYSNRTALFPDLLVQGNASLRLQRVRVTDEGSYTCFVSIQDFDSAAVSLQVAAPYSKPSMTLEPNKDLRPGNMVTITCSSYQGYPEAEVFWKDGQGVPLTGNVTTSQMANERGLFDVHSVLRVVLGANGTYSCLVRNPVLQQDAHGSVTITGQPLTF

T3: His-tagged cynomolgus monkey B7-H3 (cynomolgus monkey)
T3 chain: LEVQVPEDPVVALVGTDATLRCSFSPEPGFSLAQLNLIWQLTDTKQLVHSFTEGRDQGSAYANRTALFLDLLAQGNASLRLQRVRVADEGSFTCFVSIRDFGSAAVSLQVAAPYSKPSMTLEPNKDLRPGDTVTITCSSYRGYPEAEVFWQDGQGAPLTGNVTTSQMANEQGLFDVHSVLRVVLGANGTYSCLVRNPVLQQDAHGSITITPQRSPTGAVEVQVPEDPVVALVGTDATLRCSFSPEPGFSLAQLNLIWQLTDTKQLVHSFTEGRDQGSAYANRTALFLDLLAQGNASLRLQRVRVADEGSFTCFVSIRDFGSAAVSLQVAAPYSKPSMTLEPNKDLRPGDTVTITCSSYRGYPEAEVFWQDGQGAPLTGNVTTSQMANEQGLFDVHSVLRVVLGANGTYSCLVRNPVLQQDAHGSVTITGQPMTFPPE

T4: B7-H3 on B7-H3-expressing CHO cells (Genescript) (UniProt Q5ZPR3 29-534, limits assumed)
T4 construct: whole, on cells; also called CHO-K1/B7-H3; MFI B7-H3
T4 sequence (looked up): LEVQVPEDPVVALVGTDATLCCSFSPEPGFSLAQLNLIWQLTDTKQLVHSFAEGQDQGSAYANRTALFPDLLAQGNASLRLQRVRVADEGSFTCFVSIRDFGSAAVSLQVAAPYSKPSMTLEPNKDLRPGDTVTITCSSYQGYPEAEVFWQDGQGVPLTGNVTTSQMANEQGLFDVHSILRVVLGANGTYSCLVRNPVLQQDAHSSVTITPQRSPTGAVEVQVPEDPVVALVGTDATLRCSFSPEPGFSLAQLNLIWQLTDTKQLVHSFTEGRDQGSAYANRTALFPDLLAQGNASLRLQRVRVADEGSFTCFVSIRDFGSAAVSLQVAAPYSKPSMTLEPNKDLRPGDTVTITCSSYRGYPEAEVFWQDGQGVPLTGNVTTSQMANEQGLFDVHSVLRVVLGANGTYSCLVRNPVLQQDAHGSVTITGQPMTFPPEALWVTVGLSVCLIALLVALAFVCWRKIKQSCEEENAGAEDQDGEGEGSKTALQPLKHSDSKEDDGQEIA


Legend:
His-tagged human B7-H3 [1] = biological target: T1, His-tagged human B7-H3; experiment: ELISA OD450 on hu B7-H3 over OD450 on mu B7-H3
Protocol: (§1) The variable regions of heavy and light chains were cloned and assembled into a single chain Fv-Fc (ScFv-Fc) mammalian expression vector. Sanger sequencing was performed by GeneWiz and sequences were evaluated using DNASTAR Lasergene 15. Unique scFv-Fes were transiently expressed in Expi293 cells (Life Technologies, #A14527) grown in Expi293 Expression Medium (Life Technologies, #A1435101) after transfection using the ExpiFectamine transfection reagent and supplements (Life Technologies, #A14524). Cells were incubated for 3-5 days with shaking at 37° C. in a 5% CO2 humidified incubator.

His-tagged human B7-H3 [2] = biological target: T1, His-tagged human B7-H3; experiment: ELISA, coated His-tagged antigen, scFv-Fc 1 ug/ml
Protocol: as §1

His-tagged mouse B7-H3 = biological target: T2, His-tagged mouse B7-H3; experiment: ELISA, coated His-tagged antigen, scFv-Fc 1 ug/ml
Protocol: as §1

[3] = biological target: T3, His-tagged cynomolgus monkey B7-H3; experiment: ELISA, coated His-tagged antigen, scFv-Fc 1 ug/ml
Protocol: as §1

[4] = biological target: T4, B7-H3 on B7-H3-expressing CHO cells …; experiment: flow cytometry, B7-H3-expressing CHO cells, 10 ug/ml
Protocol: Binding of anti-B7-H3 antibodies to cell lines was assessed by flow cytometry. Briefly, approximately 1.5 e5 B7-H3-expressing CHO cells (Genescript) or parent CHO cells (ATCC) were resuspended in FACS buffer (PBS/1% BSA/0.01% NaN3) containing 10 μg/ml of anti-B7-H3 antibodies and incubated for 60 min on ice. […] Cells were then washed twice, resuspended in FACS buffer, and read on an Attune Flow Cytometer (Life Technologies). Data are expressed as Mean Fluorescent Intensities (MFI).

Binder	hu:mu ratio (His-tagged human B7-H3 [1])	ELISA OD450 @ 1 ug/ml (His-tagged human B7-H3 [2])	ELISA OD450 @ 1 ug/ml (His-tagged mouse B7-H3)	ELISA OD450 @ 1 ug/ml [3]	MFI @ 10 ug/ml [4]
40633p1.1.G7 (scFv, V domains shown, Tested as scFv-Fc (Expi293 supernatant)) VH: EVQLLESGGGLVQPGGSLRLSCAASGFTFSGSAMNWVRQAPGKGLEWVSAINSGGTTIYYADSVKGRFTVSRDNSKNTLYLQMNSLRAEDTAVYYCVKLDFYYGMDVWGEGTTVTVSS VL: QSVVTQPPSASGTPGQRVTVSCSGSSSNVGSKYVQWYQQLPGTAPKLLIYATDRRPSGVPDRFSGSKSGTSASLAISGLQSEDEADYYCASWDDSLNAWVFGGGTKLTVL	1.15	2.16 OD450	1.87 OD450	1.95 OD450	78300 MFI
40633p1.1.H11 (scFv, V domains shown, Tested as scFv-Fc (Expi293 supernatant)) VH: EVQLLESGGGLVQPGGSLRLSCAASGFTFSSYPMTWVRQAPGKGLEWVADINSGGGTTLYADAVKGRFTISRDNSKNIVYLQMNSLRGEDTAVYYCAKHLDYYSYGMDVWGQGTTVTVSS VL: QSVLTQPPSASGTPGQRVTISCSGVTSKIGSKYVHWYQQLPGTAPKLLIYRNFERPSGVPDRFSGSTSGTSASLAISGLQSEDEADYYCATWEGALNGWVFGGGTKLTVL	1.1	2.07 OD450	1.88 OD450	1.92 OD450	81300 MFI
40633p1.1.F2 (scFv, V domains shown, Tested as scFv-Fc (Expi293 supernatant)) VH: EVQLLESGGGLVQPGGSLRLSCVASGLTFNGFAMTWVRQAPGKGLEWVSGISWNSGSIYYADSVKGRFTISRDNSKNTVYLQMSSLRAEDTAIYYCAKNWNDYYNSMDVWGQGTTVTVSS VL: QSVLTQPPSASGTPGQRVTISCSGSRSNIGTKYVYWYQQFPGTAPKLLIYTTDRRPSGVPDRFSGSKSGTSASLAISGLQSEDEADYYCSAWDDRLNAWVFGGGTKLTVL	1.47	1.76 OD450	1.2 OD450	1.77 OD450	66800 MFI
40633p1.1.G10 (scFv, V domains shown, Tested as scFv-Fc (Expi293 supernatant)) VH: EVQLLESGGGLVEPGGSLRLSCAASGFSFSSYGMHWVRQAPGKGLDWVAVINGEGSGTYYADSVKGRFTISRDNSKSTLYLQMNSLRAEDTAVYYCTKYYYNYAMDVWGQGTTVTVSS VL: QSVLTQPPSASGTPGQRVTISCSGSRTDIGTTSVNWYQQLPGTAPKLLIYQSHQRPSGVPDRFSGSKSGTSASLAISGLQSEDEADYYCASWDASQNTWVFGGGTKLTVL	1.32	2.2 OD450	1.67 OD450	1.81 OD450	60100 MFI
40633p1.1.D11 (scFv, V domains shown, Tested as scFv-Fc (Expi293 supernatant)) VH: EVQLLESGGGLVQPGGSLRLSCAASGFTFRSYAMSWVRQAPGKGLEWVAYIGSSGGTTYYADSVKGRFTISRDNSKNTLYLQMNSLRAEDTAVYYCVKESYYYMDVWGQGTTVTVSS VL: QSVLTQPPSASGTPGQRVTISCSATISNIDINRVSWYQQLPGTAPKLLIFNSQRPSGVPDRFSGSKSGTSASLAISGLQSEDEADYYCATWDDSLNSWVFGGGTKLTVL	1.18	1.72 OD450	1.45 OD450	1.91 OD450	78600 MFI
40511p1.1.D6 (scFv, V domains shown, Tested as scFv-Fc (Expi293 supernatant)) VH: DVQLVESGGGVVRPGESLTLSCAASGFTINSYAVSWVRQAPGEGLEWVSGISGSGVRYYADSVKGRFTISRDNSNNTLYLQMNSLRAEDTAVYYCARSNKVTWNNFFDYWGLGTLVTVSS VL: EVVLTQSPGTLTLSPGERATLSCRASRSILTSLAWYQQKPGQAPRLLIYNTVTRATGIPARFSGSGSGTEFTLTINSLQSEDFAVYYCQQYYDWPPLTFGGGTKVEIK	1.19	1.92 OD450	1.61 OD450	2.11 OD450	84200 MFI
40511p1.1.G3 (scFv, V domains shown, Tested as scFv-Fc (Expi293 supernatant)) VH: DVQLVESGGGVVRPGESLTLSCAASGFTINSYAVSWVRQAPGEGLEWVSGISGSGVRYYADSVKGRFTISRDDSNNTLYLQMNSLRAEDTAVYYCARSNKVTWNNFFDYWGLGTLVTVSS VL: EVVLTQSPGTLTLSPGERATLSCRASRSILTSLAWYQQKPGQAPRLLIYNTVTRATGIPARFSGSGSGTEFTLTINSLQSEDFAVYYCQQYYDWPPLTFGGGTKVEIK	1.24	2.13 OD450	1.71 OD450	1.97 OD450	89100 MFI
40633p1.1.E3 (scFv, V domains shown, Tested as scFv-Fc (Expi293 supernatant)) VH: EVQLLESGGGLVQPGGSLRLSCAASGFTVSYYGMSWVRQAPGKGLEWVSAIKQDGSEKYYADSVKGRFTISRDNSKNTLYLQMNSLRAEDTAVYYCARHWNDYSNAMNVWGQGTTVTVSS VL: not shown	3.01	0.554 OD450	0.184 OD450	1.63 OD450	44000 MFI
40633p1.1.G5 (scFv, V domains shown, Tested as scFv-Fc (Expi293 supernatant)) VH: EVQLLESGGGLVQPGGSLRLSCAASGFIVNYYGMSWVRQPPGKGLEWVSAIKQDGSEKYYADSVKGRFTISRDNSKTTLYLQMNSLRAEDTAVYYCARHWNDYSNGMNVWGQGTTVTVSS VL: QSVLTQPPSASGTPGQRVTISCSGSWSNIGSYNSHWYQKLPGTAPKLLIYTTDRRPSGVPDRFSGSKSGTSASLAISGLQSEDEADYYCGTWDDSLNVWVFGGGTKLTVL	3.09	0.794 OD450	0.257 OD450	1.49 OD450	41000 MFI
40633p1.1.E6 (scFv, V domains shown, Tested as scFv-Fc (Expi293 supernatant)) VH: EVQLLESGGGLVQPGGSLRLSCAASGLTFSSYAMNWVRQAPGKGLEWVAGIGGSGSSTYHTDSVKGRFTISRDNSKNTLYLQMSSLRAEDAAVYYCAKEDHWSGGMDVWGQGTTVTVSS VL: not shown	2.44	1.39 OD450	0.572 OD450	1.53 OD450	43500 MFI
40633p1.1.G3 (scFv, V domains shown, Tested as scFv-Fc (Expi293 supernatant)) VH: EVQLLESGGGLVQPGGSLRLSCAASGLTFSSYAMNWVRQAPGKGLEWVAGIGGSGSSTYHTDSVKGRFTISRDNSKNTLYLQMNSLRAEDAAVYYCAKEDHWSGGMDVWGQGTTVTVSS VL: not shown	1.28	2.14 OD450	1.68 OD450	1.89 OD450	69900 MFI
